Blank lines part the entries; values can stand above or below the binder they belong to.
Experiments:
[1] = biological target: T1, amphyphisin SH3 (AMPH_HUMAN), P49418; assay: SPOT array
T1 chain: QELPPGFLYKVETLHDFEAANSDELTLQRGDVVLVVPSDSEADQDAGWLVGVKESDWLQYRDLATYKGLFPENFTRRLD

[2] = biological target: endophilin SH3 (SH3G2_HUMAN), Q99962; assay: SPOT array

B1: Q9H8D9 51-64 (peptide)
chain: IQVAFRRPETPSSG
normalised SPOT signal, Boehringer light units (BLU); mean over the file's lines of this peptide [1]: 55.7 | normalised SPOT signal, Boehringer light units (BLU); mean over the file's lines of this peptide [2]: 5.6

B3: Q9HBK4 869-882 (peptide)
chain: ISSVPRRPARALHP
normalised SPOT signal, Boehringer light units (BLU); mean over the file's lines of this peptide [1]: 12900 | normalised SPOT signal, Boehringer light units (BLU); mean over the file's lines of this peptide [2]: 5010

B4: Q9NX58 81-94 (peptide)
chain: ISELIKRPNVSPKV
normalised SPOT signal, Boehringer light units (BLU); mean over the file's lines of this peptide [1]: 30.6 | normalised SPOT signal, Boehringer light units (BLU); mean over the file's lines of this peptide [2]: 14.7

B5: Q9H6A9 265-278 (peptide)
chain: KDLALLRPSKRQPP
normalised SPOT signal, Boehringer light units (BLU); mean over the file's lines of this peptide [1]: 66.4 | normalised SPOT signal, Boehringer light units (BLU); mean over the file's lines of this peptide [2]: 226

B9: Q9H2U9 455-468 (peptide)
chain: KAGSISRPAKDESD
normalised SPOT signal, Boehringer light units (BLU); mean over the file's lines of this peptide [1]: 164 | normalised SPOT signal, Boehringer light units (BLU); mean over the file's lines of this peptide [2]: 127

B12: Q9H669 126-139 (peptide)
chain: ISHRLRRPGAPPST
normalised SPOT signal, Boehringer light units (BLU); mean over the file's lines of this peptide [1]: 9.8 | normalised SPOT signal, Boehringer light units (BLU); mean over the file's lines of this peptide [2]: 120

B15: Q9Y4Z6 67-80 (peptide)
chain: KAISFLRPTKENVD
normalised SPOT signal, Boehringer light units (BLU); mean over the file's lines of this peptide [1]: 56.2 | normalised SPOT signal, Boehringer light units (BLU); mean over the file's lines of this peptide [2]: 68.6

B17: Q9BZI7 330-343 (peptide)
chain: KDEKPKRPEDESGR
normalised SPOT signal, Boehringer light units (BLU); mean over the file's lines of this peptide [1]: 30.5 | normalised SPOT signal, Boehringer light units (BLU); mean over the file's lines of this peptide [2]: 314

B18: Q8WZ42 18722-18736 (peptide)
chain: KASRPIKPPGPPIN
normalised SPOT signal, Boehringer light units (BLU); mean over the file's lines of this peptide [1]: 48.3 | normalised SPOT signal, Boehringer light units (BLU); mean over the file's lines of this peptide [2]: 2120

B19: Q9P2M4 294-308 (peptide)
chain: KAGRPSKPPSPKQN
normalised SPOT signal, Boehringer light units (BLU); mean over the file's lines of this peptide [1]: 28 | normalised SPOT signal, Boehringer light units (BLU); mean over the file's lines of this peptide [2]: 3150

B21: Q96T13 405-418 (peptide)
chain: ISFHPKRPVHILLH
normalised SPOT signal, Boehringer light units (BLU); mean over the file's lines of this peptide [1]: 27.3 | normalised SPOT signal, Boehringer light units (BLU); mean over the file's lines of this peptide [2]: 173

B23: O00155 224-237 (peptide)
chain: ISRRLRRPPHVGRA
normalised SPOT signal, Boehringer light units (BLU); mean over the file's lines of this peptide [1]: 56.5 | normalised SPOT signal, Boehringer light units (BLU); mean over the file's lines of this peptide [2]: 5.9

B24: Q96SZ9 375-388 (peptide)
chain: ISFHPKRPMHILLH
normalised SPOT signal, Boehringer light units (BLU); mean over the file's lines of this peptide [1]: 56.1 | normalised SPOT signal, Boehringer light units (BLU); mean over the file's lines of this peptide [2]: 524

B25: Q9P283 1-15 (peptide)
chain: AAPFPDRPPAHLVS
normalised SPOT signal, Boehringer light units (BLU); mean over the file's lines of this peptide [1]: 48.1 | normalised SPOT signal, Boehringer light units (BLU); mean over the file's lines of this peptide [2]: 90.4

B28: Q9H6Z2 106-119 (peptide)
chain: ALTLPRRPFLHSST
normalised SPOT signal, Boehringer light units (BLU); mean over the file's lines of this peptide [1]: 1530 | normalised SPOT signal, Boehringer light units (BLU); mean over the file's lines of this peptide [2]: 7630

B29: Q9C0I2 1104-1117 (peptide)
chain: KAPPPTRPKRNDST
normalised SPOT signal, Boehringer light units (BLU); mean over the file's lines of this peptide [1]: 8570 | normalised SPOT signal, Boehringer light units (BLU); mean over the file's lines of this peptide [2]: 3140

B30: Q9ULL8 1100-1114 (peptide)
chain: KAFPPPRPPPPNWE
normalised SPOT signal, Boehringer light units (BLU); mean over the file's lines of this peptide [1]: 146 | normalised SPOT signal, Boehringer light units (BLU); mean over the file's lines of this peptide [2]: 13600

B31: Q9H5F9 434-447 (peptide)
chain: ITLTPVRPDRTPRP
normalised SPOT signal, Boehringer light units (BLU); mean over the file's lines of this peptide [1]: 6730 | normalised SPOT signal, Boehringer light units (BLU); mean over the file's lines of this peptide [2]: 6160

B33: Q9Y4F1 101-114 (peptide)
chain: IVKQIRRPKHVVVK
normalised SPOT signal, Boehringer light units (BLU); mean over the file's lines of this peptide [1]: 13 | normalised SPOT signal, Boehringer light units (BLU); mean over the file's lines of this peptide [2]: 43.3

B34: Q9UFC0 257-271 (peptide)
chain: KANSPEKPPEAGAA
normalised SPOT signal, Boehringer light units (BLU); mean over the file's lines of this peptide [1]: 40.8 | normalised SPOT signal, Boehringer light units (BLU); mean over the file's lines of this peptide [2]: 47.6

B35: Q9UJU8 278-291 (peptide)
chain: IYTELSRPSKRRMQ
normalised SPOT signal, Boehringer light units (BLU); mean over the file's lines of this peptide [1]: 85 | normalised SPOT signal, Boehringer light units (BLU); mean over the file's lines of this peptide [2]: 60.3

B38: Q01118 1027-1040 (peptide)
chain: ISMKFLRPLRVLSQ
normalised SPOT signal, Boehringer light units (BLU); mean over the file's lines of this peptide [1]: 13100 | normalised SPOT signal, Boehringer light units (BLU); mean over the file's lines of this peptide [2]: 925

B40: Q9UFP7 465-479 (peptide)
chain: ITVSPNKPPAVSPG
normalised SPOT signal, Boehringer light units (BLU); mean over the file's lines of this peptide [1]: 41.6 | normalised SPOT signal, Boehringer light units (BLU); mean over the file's lines of this peptide [2]: 59.3

B41: Q9C000 395-408 (peptide)
chain: IRQILSRPERLLFI
normalised SPOT signal, Boehringer light units (BLU); mean over the file's lines of this peptide [1]: 973 | normalised SPOT signal, Boehringer light units (BLU); mean over the file's lines of this peptide [2]: 398

B42: Q9Y5I0 277-290 (peptide)
chain: IVYSFRRPVWPAVV
normalised SPOT signal, Boehringer light units (BLU); mean over the file's lines of this peptide [1]: 27.4 | normalised SPOT signal, Boehringer light units (BLU); mean over the file's lines of this peptide [2]: 147

Results, then the binder that gave them:

normalised SPOT signal, Boehringer light units (BLU); mean over the file's lines of this peptide [1]: 4960 | normalised SPOT signal, Boehringer light units (BLU); mean over the file's lines of this peptide [2]: 19900
B2: AAM34265 504-518 (peptide)
chain: IRLPPARPPTPGRS

normalised SPOT signal, Boehringer light units (BLU); mean over the file's lines of this peptide [1]: 28.5 | normalised SPOT signal, Boehringer light units (BLU); mean over the file's lines of this peptide [2]: 29.8
B6: O95444 633-646 (peptide)
chain: IQFVIKRPELLTEG

normalised SPOT signal, Boehringer light units (BLU); mean over the file's lines of this peptide [1]: 26.3 | normalised SPOT signal, Boehringer light units (BLU); mean over the file's lines of this peptide [2]: 0
B7: P48165 231-244 (peptide)
chain: IRSALKRPVEQPLG

normalised SPOT signal, Boehringer light units (BLU); mean over the file's lines of this peptide [1]: 42.4 | normalised SPOT signal, Boehringer light units (BLU); mean over the file's lines of this peptide [2]: 130
B8: P78347 180-193 (peptide)
chain: ISFIIKRPFLEPKK

normalised SPOT signal, Boehringer light units (BLU); mean over the file's lines of this peptide [1]: 216 | normalised SPOT signal, Boehringer light units (BLU); mean over the file's lines of this peptide [2]: 1960
B10: Q01826 463-477 (peptide)
chain: ISTPPSRPPQVKTA

normalised SPOT signal, Boehringer light units (BLU); mean over the file's lines of this peptide [1]: 97.3 | normalised SPOT signal, Boehringer light units (BLU); mean over the file's lines of this peptide [2]: 54.1
B11: P07202 539-552 (peptide)
chain: IRGLLARPAKLQVQ

normalised SPOT signal, Boehringer light units (BLU); mean over the file's lines of this peptide [1]: 38.3 | normalised SPOT signal, Boehringer light units (BLU); mean over the file's lines of this peptide [2]: 39.9
B13: O95444 196-209 (peptide)
chain: IRFKLKRPLEDGGR

normalised SPOT signal, Boehringer light units (BLU); mean over the file's lines of this peptide [1]: 1350 | normalised SPOT signal, Boehringer light units (BLU); mean over the file's lines of this peptide [2]: 492
B14: P80365 68-81 (peptide)
chain: ALSRLARPQRLPVA

normalised SPOT signal, Boehringer light units (BLU); mean over the file's lines of this peptide [1]: 19.8 | normalised SPOT signal, Boehringer light units (BLU); mean over the file's lines of this peptide [2]: 114
B16: Q14699 89-102 (peptide)
chain: IYSTLKRPQVETKI

normalised SPOT signal, Boehringer light units (BLU); mean over the file's lines of this peptide [1]: 535 | normalised SPOT signal, Boehringer light units (BLU); mean over the file's lines of this peptide [2]: 173
B20: O75643 1042-1055 (peptide)
chain: ISSQIERPIRIVAL

normalised SPOT signal, Boehringer light units (BLU); mean over the file's lines of this peptide [1]: 56.9 | normalised SPOT signal, Boehringer light units (BLU); mean over the file's lines of this peptide [2]: 46.4
B22: P42702 4-17 (peptide)
chain: IYVSLKRPSWMVDN

normalised SPOT signal, Boehringer light units (BLU); mean over the file's lines of this peptide [1]: 929 | normalised SPOT signal, Boehringer light units (BLU); mean over the file's lines of this peptide [2]: 730
B26: P50749 58-71 (peptide)
chain: ISWGLRRPIRLQMQ

normalised SPOT signal, Boehringer light units (BLU); mean over the file's lines of this peptide [1]: 36.3 | normalised SPOT signal, Boehringer light units (BLU); mean over the file's lines of this peptide [2]: 18.8
B27: O14514 1249-1262 (peptide)
chain: ITGTLKRPSLPEEE

normalised SPOT signal, Boehringer light units (BLU); mean over the file's lines of this peptide [1]: 51.2 | normalised SPOT signal, Boehringer light units (BLU); mean over the file's lines of this peptide [2]: 260
B32: BAC03837 101-115 (peptide)
chain: ALTSPGRPPMGFTT

normalised SPOT signal, Boehringer light units (BLU); mean over the file's lines of this peptide [1]: 100 | normalised SPOT signal, Boehringer light units (BLU); mean over the file's lines of this peptide [2]: 11600
B36: AAH32349 3-17 (peptide)
chain: KAVLPLRPPWPLWG

normalised SPOT signal, Boehringer light units (BLU); mean over the file's lines of this peptide [1]: 39.1 | normalised SPOT signal, Boehringer light units (BLU); mean over the file's lines of this peptide [2]: 46.8
B37: P24821 757-770 (peptide)
chain: ITKSLRRPETSYRQ

normalised SPOT signal, Boehringer light units (BLU); mean over the file's lines of this peptide [1]: 186 | normalised SPOT signal, Boehringer light units (BLU); mean over the file's lines of this peptide [2]: 1100
B39: P98161 2462-2476 (peptide)
chain: IRLSPNRPPLGGSS

Source: publication PMC314469, “Protein Interaction Networks by Proteome Peptide Scanning” (PLoS Biology, 2004)
